The values that follow come from publication PMC8699718, “A structurally conserved site in AUP1 binds the E2 enzyme UBE2G2 and is essential for ER-associated degradation” (PLoS Biology, 2021).

Ends that are not written are not given here.

This data set relates to RI332 (truncated Ribophorin I). Nature of the data set: CHX chase: RI332 degradation in HT1080 AUP1 KO cells. It is filed as cell-based, human. The settings on record: GFP-G2BR^AUP1 co-expressed with TM-UBE2G2, HT1080 AUP1 KO. The source says: Fig 2 The G2BR of AUP1 is required for ERAD of mutant ribophorin and GFP^u. (A) HT1080 or HRD1 KO cells were transfected with plasmid encoding RI332-MYC and with plasmid encoding HRD1 as indicated. Cells were subject to CHX chase and RI332-MYC degradation monitored by western blot. GFP serves as a transfection efficiency control. (B) HT1080 or AUP1 KO cells were transfected with plasmid encoding RI332-MYC and AUP1-FLAG WT or deletion mutants assessed for RI332 degradation. Lower band (*) in MYC blot is nonspecific. (C, D) HEK293 or AUP1 KO cells were assessed for RI332 turnover as in (B). (E) HT1080 or AUP1 KO cells were transfected with GFP^u plasmid, and its degradation assessed by emetine chase, which has previously been used to assess GFP^u turnover. […] (F) HT1080 AUP1 KO cells were transfected with GFP^u and the indicated AUP1-FLAG WT or deletion mutants, and GFP^u degradation assessed as in (E). […]
Fig 8 Recruitment of UBE2G2 to the ER membrane and activation by G2BR^AUP1 is required for ERAD. (A) HT1080 or AUP1 KO cells were transfected with NHK-HA and either empty vector or MYC-UBE2G2 and NHK turnover assessed by CHX chase. (B) AUP1 KO cells were transfected with NHK-HA and GFP fusions of either a scrambled G2BR sequence (SCR) or G2BR^AUP1 and NHK turnover and levels of endogenous UBE2G2 assessed. […] (G) U-2 OS cells were transfected as in (F), and localization assessed by SIM. […]

For the substance “GFP-G2BR^AUP1: GFP fusion of AUP1 aa 378 to 404 (SSWARQESLQERKQALYEYARRRFTER; also: GFP fusion; UniProt Q9Y679 378-404, looked up, fragment)”, the “RI332 degradation, soluble G2BR with TM-UBE2G2” value was “restored degradation of RI332”.
